Results as given in IntAct's records for PubMed 25465129.

Biological target: ab1ip_mouse Apbb1ip (UniProt Q8R5A3)
UniProt Q8R5A3, sequence (Q8R5A3 whole entry): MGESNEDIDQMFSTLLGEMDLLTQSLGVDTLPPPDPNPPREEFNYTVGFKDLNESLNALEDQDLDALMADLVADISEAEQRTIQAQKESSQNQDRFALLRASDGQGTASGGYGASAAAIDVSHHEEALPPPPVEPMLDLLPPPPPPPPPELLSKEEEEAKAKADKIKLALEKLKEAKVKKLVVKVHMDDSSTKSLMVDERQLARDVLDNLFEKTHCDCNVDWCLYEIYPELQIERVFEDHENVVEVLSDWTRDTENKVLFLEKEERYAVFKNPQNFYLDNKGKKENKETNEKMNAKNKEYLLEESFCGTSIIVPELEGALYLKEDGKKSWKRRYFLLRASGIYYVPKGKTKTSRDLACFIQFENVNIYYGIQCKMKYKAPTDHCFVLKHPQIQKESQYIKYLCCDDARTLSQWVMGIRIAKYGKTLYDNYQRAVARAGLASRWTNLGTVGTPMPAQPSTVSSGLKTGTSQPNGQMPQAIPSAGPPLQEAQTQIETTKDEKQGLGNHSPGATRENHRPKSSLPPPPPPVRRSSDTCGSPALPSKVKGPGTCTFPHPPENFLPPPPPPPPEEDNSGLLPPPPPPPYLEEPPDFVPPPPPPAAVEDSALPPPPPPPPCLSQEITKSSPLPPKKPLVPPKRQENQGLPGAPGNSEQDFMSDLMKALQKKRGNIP

Substance | effect of a mutation on the interaction
Talin-1 (Mus musculus), P26039 V871Y | decreasing interaction strength
Talin-1 (Mus musculus), P26039 V871Y;V1540Y | disrupting interaction strength
Talin-1 (Mus musculus), P26039 V1540Y | decreasing interaction strength
